Data reported in article PMC2888443 (The Journal of Biological Chemistry, 2010).

Key:
[1] = biological target: LEDGF/p75 integrase binding domain, LEDGF(IBD) (human); experiment: SEC-MALS
[2] = biological target: HIV integrase N-terminal and catalytic core domains, IN(NTD-CCD)(F185K) (HIV); experiment: SEC-MALS
[3] = biological target: HIV integrase, full-length, IN(tetra) (C56S, F139D, F185H, C280S) (HIV); experiment: AUC
[4] = biological target: LEDGF/p75 integrase binding domain, LEDGF(IBD) (human); experiment: AUC
[5] = biological target: LEDGF/p75 C-terminal fragment, LEDGF(Cterm), residues 325-530 (human) (UniProt O75475); experiment: SEC-MALS
[6] = biological target: IN(tetra)·LEDGF(IBD) complex of two IN and one LEDGF(IBD), IN2LEDGF1 (HIV | human); experiment: AUC
[7] = biological target: T1, LEDGF/p75 C-terminal fragment, LEDGF(Cterm), residues 325-530 (human, UniProt O75475 325-530); experiment: SEC-MALS
T1 sequence: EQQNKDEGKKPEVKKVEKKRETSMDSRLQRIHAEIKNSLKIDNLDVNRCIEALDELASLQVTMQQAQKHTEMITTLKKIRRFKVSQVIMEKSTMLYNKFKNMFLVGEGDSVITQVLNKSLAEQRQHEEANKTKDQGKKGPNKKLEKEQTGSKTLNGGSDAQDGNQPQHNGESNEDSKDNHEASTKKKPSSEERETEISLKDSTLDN

## HIV integrase N-terminal and catalytic core domains, IN(NTD-CCD)(F185K) (domain or fragment)
[1]
  stoichiometry N: 1 IN:LEDGF
[2]
  stoichiometry N: 2

## HIV integrase, full-length, IN(tetra) (C56S, F139D, F185H, C280S) (enzyme)
[1]
  stoichiometry N: 2 IN:LEDGF
[3]
  Kd: 9.3 µM
[4]
  stoichiometry N: 2 IN:LEDGF

## HIV integrase, full-length, IN(tetra)(D116N) (enzyme)
[5]
  stoichiometry N: 1 IN:LEDGF

## IN(tetra)·LEDGF(IBD) complex of two IN and one LEDGF(IBD), IN2LEDGF1
[6]
  Kd: 8.9 µM

B1: HIV integrase, full-length, wild-type (enzyme)
chain: FLDGIDKAQEEHEKYHSNWRAMASDFNLPPVVAKEIVASCDKCQLKGEAMHGQVDCSPGIWQLDCTHLEGKVILVAVHVASGYIEAEVIPAETGQETAYFLLKLAGRWPVKTVHTDNGSNFTSTTVKAACWWAGIKQEFGIPYNPQSQGVIESMNKELKKIIGQVRDQAEHLKTAVQMAVFIHNFKRKGGIGGYSAGERIVDIIATDIQTKELQKQITKIQNFRVYYRDSRDPVWKGPAKLLWKGEGAVVIQDNSDIKVVPRRKAKIIRDYGKQMAGDDCVASRQDED
[7]
  stoichiometry N: 1 IN:LEDGF
